In patent US20110076268A1 (CRUCELL HOLLAND B V, published 2011):

Assays:
[1] = target: F protein of MARM 1129 (RSV A2 escape mutant generated against murine mAb 1129) (Respiratory Syncytial Virus strain A2) (UniProt P03420); experiment: cell-based or functional assay
[2] = target: F protein of MARM 151 (RSV A2 escape mutant generated against murine mAb 151) (Respiratory Syncytial Virus strain A2) (UniProt P03420); experiment: cell-based or functional assay
[3] = target: F protein of MARM 19 (RSV A2 escape mutant generated against human Fab 19) (Respiratory Syncytial Virus strain A2) (UniProt P03420); experiment: cell-based or functional assay
[4] = target: F protein of RSV B-1 (ATCC Cat. No. 1400) (Respiratory Syncytial Virus B, strain B-1) (UniProt O36634); experiment: cell-based or functional assay
[5] = target: F protein of RSV B-wash (ATCC Cat. No. VR-1580, strain 18537) (Respiratory Syncytial Virus B, strain 18537) (UniProt P13843); experiment: cell-based or functional assay
[6] = target: F protein of the IgG form of 58C5 MARM (N63K, M115K and E295G) (Respiratory Syncytial Virus strain A2) (UniProt P03420); experiment: cell-based or functional assay
[7] = target: F protein of the motavizumab MARM (K272E) (Respiratory Syncytial Virus strain A2) (UniProt P03420); experiment: cell-based or functional assay
[8] = target: T1, RSV strain A2 F protein (recombinant or native, not specified for Table 19) (Respiratory Syncytial Virus strain A2, UniProt P03420 26-524); experiment: ELISA, IgG titrated on captured RSV F protein; EC50 estimated
T1 construct: also called RSV F Protein

Molecule IgG form of 58c5 (antibody) has an Average Plaque Count, 0.003 ug/ml [1] of 17.7 plaques, an Average Plaque Count, 0.016 ug/ml [1] of 11.7 plaques and an Average Plaque Count, 0.08 ug/ml [1] of 5.7 plaques. It also gave an Average Plaque Count, 0.4 ug/ml [1] of 2.3 plaques, an Average Plaque Count, 2 ug/ml [1] of 0 plaques and an Average Plaque Count, 10 ug/ml [1] of 0 plaques. For the same molecule, the Plaque reduction rate, 0.003 ug/ml [1] was 21%, the Plaque reduction rate, 0.016 ug/ml [1] was 47% and the Plaque reduction rate, 0.08 ug/ml [1] was 74%. It also gave a Plaque reduction rate, 0.4 ug/ml [1] of 90%, a Plaque reduction rate, 2 ug/ml [1] of 100% and a Plaque reduction rate, 10 ug/ml [1] of 100%. The Average Plaque Count, 0.003 ug/ml [2] was 151 plaques, the Average Plaque Count, 0.016 ug/ml [2] was 128 plaques and the Average Plaque Count, 0.08 ug/ml [2] was 112 plaques. The Average Plaque Count, 0.4 ug/ml [2] was 64.7 plaques, the Average Plaque Count, 2 ug/ml [2] was 15.3 plaques and the Average Plaque Count, 10 ug/ml [2] was 0 plaques. It also gave a Plaque reduction rate, 0.003 ug/ml [2] of 0%, a Plaque reduction rate, 0.016 ug/ml [2] of 15% and a Plaque reduction rate, 0.08 ug/ml [2] of 26%. The Plaque reduction rate, 0.4 ug/ml [2] was 57%, the Plaque reduction rate, 2 ug/ml [2] was 90% and the Plaque reduction rate, 10 ug/ml [2] was 100%. It also gave an Average Plaque Count, 0.003 ug/ml [3] of 143 plaques, an Average Plaque Count, 0.016 ug/ml [3] of 135 plaques and an Average Plaque Count, 0.08 ug/ml [3] of 89.3 plaques. For the same molecule, the Average Plaque Count, 0.4 ug/ml [3] was 72 plaques, the Average Plaque Count, 2 ug/ml [3] was 16.7 plaques and the Average Plaque Count, 10 ug/ml [3] was 0.7 plaques. For the same molecule, the Plaque reduction rate, 0.003 ug/ml [3] was 8%, the Plaque reduction rate, 0.016 ug/ml [3] was 14% and the Plaque reduction rate, 0.08 ug/ml [3] was 42.7%. The Plaque reduction rate, 0.4 ug/ml [3] was 53.8%, the Plaque reduction rate, 2 ug/ml [3] was 89% and the Plaque reduction rate, 10 ug/ml [3] was 100%. It also gave an Average Plaque Count, 0.003 ug/ml [4] of 11.7 plaques, an Average Plaque Count, 0.016 ug/ml [4] of 9.3 plaques and an Average Plaque Count, 0.08 ug/ml [4] of 4 plaques. The Average Plaque Count, 0.4 ug/ml [4] was 0.3 plaques, the Average Plaque Count, 2 ug/ml [4] was 0 plaques and the Average Plaque Count, 10 ug/ml [4] was 0 plaques. The Plaque reduction rate (%), 0.003 ug/ml [4] was 5%, the Plaque reduction rate (%), 0.016 ug/ml [4] was 24% and the Plaque reduction rate (%), 0.08 ug/ml [4] was 67.5%. For the same molecule, the Plaque reduction rate (%), 0.4 ug/ml [4] was 97.6%, the Plaque reduction rate (%), 2 ug/ml [4] was 100% and the Plaque reduction rate (%), 10 ug/ml [4] was 100%. It also gave an Average Plaque Count, 0.003 ug/ml [5] of 20.7 plaques, an Average Plaque Count, 0.016 ug/ml [5] of 16.3 plaques and an Average Plaque Count, 0.08 ug/ml [5] of 7.7 plaques. For the same molecule, the Average Plaque Count, 0.4 ug/ml [5] was 1.3 plaques, the Average Plaque Count, 2 ug/ml [5] was 0 plaques and the Average Plaque Count, 10 ug/ml [5] was 0 plaques. It also gave a Plaque reduction rate (%), 0.003 ug/ml [5] of 21%, a Plaque reduction rate (%), 0.016 ug/ml [5] of 38% and a Plaque reduction rate (%), 0.08 ug/ml [5] of 71%. For the same molecule, the Plaque reduction rate (%), 0.4 ug/ml [5] was 95%, the Plaque reduction rate (%), 2 ug/ml [5] was 100% and the Plaque reduction rate (%), 10 ug/ml [5] was 100%. For the same molecule, the ED50, neutralization of IgG 58C5 MARM [6] was > 66700 pM, the Plaque reduction rate, IgG 58C5 MARM, 3.2 ng/ml [6] was 0% and the Plaque reduction rate, IgG 58C5 MARM, 16 ng/ml [6] was 0%. The Plaque reduction rate, IgG 58C5 MARM, 80 ng/ml [6] was 0%, the Plaque reduction rate, IgG 58C5 MARM, 400 ng/ml [6] was 0% and the Plaque reduction rate, IgG 58C5 MARM, 2000 ng/ml [6] was 0%. The Plaque reduction rate, IgG 58C5 MARM, 10000 ng/ml [6] was 3.3%, the ED50, neutralization of Motavizumab MARM [7] was 173 pM and the Plaque reduction rate, Motavizumab MARM, 3.2 ng/ml [7] was 1.5%. The Plaque reduction rate, Motavizumab MARM, 16 ng/ml [7] was 43%, the Plaque reduction rate, Motavizumab MARM, 80 ng/ml [7] was 74.6% and the Plaque reduction rate, Motavizumab MARM, 400 ng/ml [7] was 92%. For the same molecule, the Plaque reduction rate, Motavizumab MARM, 2000 ng/ml [7] was 95.8% and the Plaque reduction rate, Motavizumab MARM, 10000 ng/ml [7] was 97.6%.

B1: Motavizumab (antibody, V domains shown)
VH: QVTLRESGPALVKPTQTLTLTCTFSGFSLSTAGMSVGWIRQPPGKALEWLADIWWDDKKHYNPSLKDRLTISKDTSKNQVVLKVTNMDPADTATYYCARDMIFNFYFDVWGQGTTVTVSS
VL: DIQMTQSPSTLSASVGDRVTITCSASSRVGYMHWYQQKPGKAPKLLIYDTSKLASGVPSRFSGSGSGTEFTLTISSLQPDDFATYYCFQGSGYPFTFGGGTKVEIK
With B1 the EC50 [8] was ~27 pM.
